The values that follow come from article PMC6474325, “PPR Protein BFA2 Is Essential for the Accumulation of the atpH/F Transcript in Chloroplasts”.

Data set [1] addresses T1, BFA2 (MBP-BFA2, mature) (Arabidopsis thaliana, UniProt O65567 62-904).
T1 sequence: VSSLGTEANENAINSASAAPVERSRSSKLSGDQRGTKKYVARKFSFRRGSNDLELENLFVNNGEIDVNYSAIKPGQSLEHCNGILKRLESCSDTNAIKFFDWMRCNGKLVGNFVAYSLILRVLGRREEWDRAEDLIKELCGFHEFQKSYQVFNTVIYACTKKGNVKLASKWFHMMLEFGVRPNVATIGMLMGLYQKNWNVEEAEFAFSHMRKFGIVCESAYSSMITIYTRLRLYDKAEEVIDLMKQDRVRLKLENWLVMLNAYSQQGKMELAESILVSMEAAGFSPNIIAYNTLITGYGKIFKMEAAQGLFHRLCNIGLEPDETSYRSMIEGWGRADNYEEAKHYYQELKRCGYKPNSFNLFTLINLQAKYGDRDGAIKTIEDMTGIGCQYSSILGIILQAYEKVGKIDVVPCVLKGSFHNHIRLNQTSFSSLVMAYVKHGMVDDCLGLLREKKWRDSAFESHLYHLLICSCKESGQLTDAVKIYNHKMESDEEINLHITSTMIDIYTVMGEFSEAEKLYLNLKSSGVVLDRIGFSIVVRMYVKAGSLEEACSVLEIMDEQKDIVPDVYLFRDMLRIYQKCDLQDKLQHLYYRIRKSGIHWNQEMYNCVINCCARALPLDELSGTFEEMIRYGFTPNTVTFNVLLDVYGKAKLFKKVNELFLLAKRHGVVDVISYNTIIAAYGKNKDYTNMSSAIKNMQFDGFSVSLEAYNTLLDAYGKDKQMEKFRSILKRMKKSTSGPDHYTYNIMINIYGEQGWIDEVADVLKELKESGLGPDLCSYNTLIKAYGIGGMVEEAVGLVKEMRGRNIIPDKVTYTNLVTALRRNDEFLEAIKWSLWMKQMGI
The experiment in a line: EMSA; 1 ug tRNA, 2 mM Mg2+; complex detected at protein 3x molar over RNA; 10 mM HEPES pH 7.5, 20 mM KCl, 2 mM MgCl2, 1 mM DTT, 5% glycerol, 1 ug yeast tRNA, 20 C, 30 min; 6% native PAGE with 2.5% glycerol. As to conditions: protein: recombinant; tags: MBP (pMAL-c5x); label: 5'-biotin on probe; single strand. In general terms: Mobility shift assays separate free from complexed probe on a gel.

For data set [2], the target named is T1, BFA2 (MBP-BFA2, mature). The data set can be described thus: competition; unlabeled ndhA RNA; 1000-fold excess does not affect complex with labeled atpF sRNA; 10 mM HEPES pH 7.5, 20 mM KCl, 2 mM MgCl2, 1 mM DTT, 5% glycerol, 1 ug yeast tRNA, 20 C, 30 min; 6% native PAGE with 2.5% glycerol. Particulars: protein: recombinant; tags: MBP (pMAL-c5x); label: none; single strand.

B1: atpF sRNA (atpF-atpA intergenic) (ssRNA)
RNA: UAUAGGCAUUAUUUUUUUUUCU
In the case of B1, the binding result with BFA2 (MBP-BFA2, mature) [1] is on record as “binds”.

B2: ndhA 5' end sRNA (ssRNA)
RNA: UUAUGACGAUACUCGGUAGCAUAGAUAUAA
Take B2: the binding result with BFA2 (MBP-BFA2, mature) [2] is given as “no binding”.
